Data: patent US20250115953, “Methylcytosine-Selective Deaminases and Uses Thereof” (New England Biolabs, Inc., published 2025)
Read-outs that look alike come from different tables or passages of the source.

How the values were obtained:
[1] = tested on: T1, B5 deaminase
T1 sequence: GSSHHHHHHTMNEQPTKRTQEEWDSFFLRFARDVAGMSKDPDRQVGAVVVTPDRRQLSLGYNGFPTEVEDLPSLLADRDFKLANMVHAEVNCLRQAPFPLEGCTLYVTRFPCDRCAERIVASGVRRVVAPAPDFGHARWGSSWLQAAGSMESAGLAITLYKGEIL

[2] = tested on: T1, B5 deaminase; conditions: LC/MS
[3] = tested on: T1, B5 deaminase; conditions: all C replaced by 5mC; most preferred motif ATCAA; least GGCCC 22.51%
[4] = tested on: T2, E10 deaminase; conditions: all C replaced by 5mC; most preferred motif ATCAA; least GGCGC 11.58%
T2 sequence: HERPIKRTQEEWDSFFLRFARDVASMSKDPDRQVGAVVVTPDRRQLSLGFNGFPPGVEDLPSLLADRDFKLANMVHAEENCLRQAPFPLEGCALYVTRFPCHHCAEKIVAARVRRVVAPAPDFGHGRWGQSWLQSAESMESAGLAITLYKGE

[5] = tested on: T3, F7 deaminase; conditions: all C replaced by 5mC; most preferred motif GTCAG; least GGCCG 5.51%
T3 sequence: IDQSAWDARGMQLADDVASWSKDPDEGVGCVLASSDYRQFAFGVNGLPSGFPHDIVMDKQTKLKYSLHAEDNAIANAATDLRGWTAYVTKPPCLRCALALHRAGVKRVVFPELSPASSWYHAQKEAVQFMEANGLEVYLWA

[6] = tested on: T4, G12 deaminase; conditions: all C replaced by 5mC; most preferred motif TACGG; least GCCCC 0.90%
T4 sequence: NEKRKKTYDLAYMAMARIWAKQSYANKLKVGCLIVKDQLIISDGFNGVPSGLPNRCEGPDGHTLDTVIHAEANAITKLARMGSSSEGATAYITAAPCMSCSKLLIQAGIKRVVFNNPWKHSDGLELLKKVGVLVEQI

[7] = tested on: T5, H3 deaminase; conditions: all C replaced by 5mC; most preferred motif AACTT; least GGCCC 1.28%
T5 sequence: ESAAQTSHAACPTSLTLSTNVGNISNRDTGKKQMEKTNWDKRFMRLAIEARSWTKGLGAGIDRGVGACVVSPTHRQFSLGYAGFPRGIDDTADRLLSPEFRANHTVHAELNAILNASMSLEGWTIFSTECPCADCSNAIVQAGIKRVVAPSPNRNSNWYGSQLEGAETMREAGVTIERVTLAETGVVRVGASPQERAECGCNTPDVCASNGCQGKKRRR

[8] = tested on: APOBEC
[9] = tested on: T1, B5 deaminase; conditions: 30 C 12 h, 6 uM enzyme
[10] = tested on: T1, B5 deaminase; conditions: Zn, 2-3 h
[11] = tested on: T2, E10 deaminase; conditions: 2-3 h
[12] = tested on: T3, F7 deaminase; conditions: Zn, 2-3 h
[13] = tested on: T6, PBCV-1 deaminase (Paramecium bursaria chlorella virus 1?); conditions: overnight
T6 sequence: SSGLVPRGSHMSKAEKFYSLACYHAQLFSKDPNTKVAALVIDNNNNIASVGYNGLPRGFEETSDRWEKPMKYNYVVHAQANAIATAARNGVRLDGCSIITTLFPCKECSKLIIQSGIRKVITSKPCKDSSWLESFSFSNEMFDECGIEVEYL

[14] = tested on: B4 deaminase; conditions: 5mC at position 17; solid support, overnight
[15] = molecular target: T7, PRW313; test: 1 h; conditions: label: 5'-FAM
T7 chain: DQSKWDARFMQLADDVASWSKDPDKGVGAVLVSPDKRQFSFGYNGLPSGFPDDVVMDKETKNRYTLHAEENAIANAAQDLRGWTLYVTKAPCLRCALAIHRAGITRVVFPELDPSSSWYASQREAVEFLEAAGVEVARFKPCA

[16] = molecular target: T8, PRW314; test: 1 h; conditions: label: 5'-FAM
T8 chain: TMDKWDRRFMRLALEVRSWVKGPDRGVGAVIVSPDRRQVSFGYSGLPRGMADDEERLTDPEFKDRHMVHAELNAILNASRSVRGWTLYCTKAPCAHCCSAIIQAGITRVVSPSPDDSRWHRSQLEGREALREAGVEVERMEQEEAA

[17] = molecular target: T9, PRW294; test: 1 h; conditions: label: 5'-FAM
T9 chain: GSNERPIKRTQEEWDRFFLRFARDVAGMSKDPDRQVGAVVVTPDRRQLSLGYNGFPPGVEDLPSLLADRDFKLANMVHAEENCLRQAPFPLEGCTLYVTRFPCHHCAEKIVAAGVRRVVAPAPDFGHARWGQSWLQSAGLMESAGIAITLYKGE

[18] = molecular target: T10, PRW311; test: 1 h; conditions: label: 5'-FAM
T10 chain: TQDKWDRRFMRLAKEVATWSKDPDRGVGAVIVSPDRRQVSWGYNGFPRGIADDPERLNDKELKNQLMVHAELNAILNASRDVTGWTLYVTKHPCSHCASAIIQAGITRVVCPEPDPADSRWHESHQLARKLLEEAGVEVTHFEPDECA

[19] = molecular target: T11, G10 deaminase; test: solid support, overnight; conditions: tags: immobilized on solid support; label: 5'-FAM
T11 chain: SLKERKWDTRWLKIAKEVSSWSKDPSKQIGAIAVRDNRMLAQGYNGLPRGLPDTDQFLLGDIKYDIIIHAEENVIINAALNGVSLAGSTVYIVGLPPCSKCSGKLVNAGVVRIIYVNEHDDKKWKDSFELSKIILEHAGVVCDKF

[20] = molecular target: T12, 206 deaminase; test: solid support, overnight; conditions: tags: immobilized on solid support; label: 5'-FAM
T12 chain: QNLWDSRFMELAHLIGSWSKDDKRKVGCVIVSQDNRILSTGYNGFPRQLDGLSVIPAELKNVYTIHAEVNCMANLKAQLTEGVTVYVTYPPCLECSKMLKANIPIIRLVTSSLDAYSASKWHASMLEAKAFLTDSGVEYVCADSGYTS

[21] = molecular target: T13, E12 deaminase; test: solid support, overnight; conditions: tags: immobilized on solid support; label: 5'-FAM
T13 chain: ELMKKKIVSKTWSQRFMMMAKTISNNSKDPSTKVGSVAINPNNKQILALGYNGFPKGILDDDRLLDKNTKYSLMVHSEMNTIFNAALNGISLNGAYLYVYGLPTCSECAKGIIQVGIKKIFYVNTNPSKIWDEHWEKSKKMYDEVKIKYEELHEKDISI

[22] = molecular target: T14, 251 deaminase; test: solid support, overnight; conditions: tags: immobilized on solid support; label: 5'-FAM
T14 chain: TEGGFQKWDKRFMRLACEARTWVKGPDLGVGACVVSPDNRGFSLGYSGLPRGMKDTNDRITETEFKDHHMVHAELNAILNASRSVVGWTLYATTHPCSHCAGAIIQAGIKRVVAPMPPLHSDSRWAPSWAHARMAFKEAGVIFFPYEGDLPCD

[23] = molecular target: T15, F12 deaminase; test: solid support, overnight; conditions: tags: immobilized on solid support; label: 5'-FAM
T15 chain: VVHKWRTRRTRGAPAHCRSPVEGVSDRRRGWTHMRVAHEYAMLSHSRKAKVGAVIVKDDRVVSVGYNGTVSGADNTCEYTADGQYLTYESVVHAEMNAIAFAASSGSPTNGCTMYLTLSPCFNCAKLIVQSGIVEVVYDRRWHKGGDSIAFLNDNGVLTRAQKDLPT

[24] = molecular target: T16, H2 deaminase; test: solid support, overnight; conditions: tags: immobilized on solid support; label: 5'-FAM
T16 chain: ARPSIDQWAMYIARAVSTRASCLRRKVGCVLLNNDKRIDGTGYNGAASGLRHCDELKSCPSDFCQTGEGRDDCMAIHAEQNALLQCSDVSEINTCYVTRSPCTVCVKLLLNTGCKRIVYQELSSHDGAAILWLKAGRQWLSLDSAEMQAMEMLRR

[25] = molecular target: T17, 252 deaminase; test: solid support, overnight; conditions: tags: immobilized on solid support; label: 5'-FAM
T17 chain: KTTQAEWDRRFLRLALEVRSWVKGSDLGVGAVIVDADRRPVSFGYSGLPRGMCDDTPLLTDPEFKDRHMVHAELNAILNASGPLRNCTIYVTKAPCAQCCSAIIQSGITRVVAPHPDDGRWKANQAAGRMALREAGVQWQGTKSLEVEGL

Work on lambda genomic DNA, native yielded an activity (% deamination) ([1]; not denatured) of 3.

With T4 genomic DNA, native the activity (% deamination) ([1]; 5gmC (glucosylated 5hmC), not denatured) was 3.

For ssDNA oligo with 5caC (Table 6), the activity (% deamination) ([2]; 5caC) was 2.

Work on XP12 genomic DNA, denatured yielded an activity (% deamination) ([1]; all C replaced by 5mC, NaOH and heat denatured) of 35, an activity (% deamination) [3] of 74.6 and an activity (% deamination) [4] of 40.9. The activity (% deamination) [5] was 22, the activity (% deamination) [6] was 12.7 and the activity (% deamination) [7] was 11.3.

T4 genomic DNA, denatured was tested, and the activity (% deamination) ([1]; 5gmC (glucosylated 5hmC), NaOH and heat denatured) was 6.

lambda genomic DNA, denatured was tested, and the activity (% deamination) ([1]; NaOH and heat denatured) was 6.

Molecule ssDNA oligo with 5mC (Table 6) has an activity (% deamination) ([2]; 5mC) of 53.

For “TGTCCGATAGACTCTACGCA [5hmC-oligo (Oligo 1)]”, the activity (% 5hmC to 5hmU) ([8]; 5hmC at position 14, unmodified C 100%) was 100 and the activity (% 5hmC to 5hmU) ([9]; 5hmC at position 14, DpnII buffer, LC/MS, unmodified C 0.90%) was 35.

For ssDNA oligo with 5fC (Table 6), the activity (% deamination) ([2]; 5fC) was 2.

ssDNA oligo C (Table 6) showed an activity (% deamination) ([2]; average) of 2.

Work on XP12 genomic DNA, native yielded an activity (% deamination) ([1]; all C replaced by 5mC, not denatured) of 4.

In the case of T4gt genomic DNA, denatured, the activity (% deamination) ([1]; all C replaced by 5hmC, NaOH and heat denatured) is reported as 27.

With T4gt genomic DNA, native the activity (% deamination) ([1]; all C replaced by 5hmC, not denatured) was 9.

Molecule “ATACACCGATGCAGAACTCATGGGCTTACGC [FAM C oligo 4]” has an activity (% deamination) [10] of 4, an activity (% deamination) [11] of 3 and an activity (% deamination) [12] of 12. The activity (% deamination) [13] was 7.

Molecule ssDNA oligo with 5gmC (Table 6) has an activity (% deamination) ([2]; 5gmC) of 2.

“TGTCCGATAGACTCTACGCA [5mC-oligo (Oligo 2)]” was tested, and the activity ([8]; 5mC at position 14, unmodified C 94.1%) was 100 % 5mC to T and the activity ([9]; 5mC at position 14, unmodified C 2.80%) was 21.1 % 5mC to T.

Work on “ATACACCGATGCAGAACTCATGGGCTTACGC [FAM 5mC oligo 1]” yielded an activity (% deamination) [14] of 3, an activity (% deamination) ([10]; 5mC at position 17, EcoRI/CE assay, 42 C, Bis-Tris pH 6.5, 36% in FIG. 7B and when on Ni beads) of 74 and an activity (% deamination) ([11]; 5mC at position 17, highest measured (6-7% in FIG. 7C/D)) of 54. It also gave an activity (% deamination) ([12]; 5mC at position 17) of 72 and an activity (% deamination) ([13]; 5mC at position 17, 42 C, Bis-Tris pH 6.5) of 51.

Work on ssDNA oligo with 5hmC (Table 6) yielded an activity (% deamination) ([2]; 5hmC) of 36.

ATACACCGATGCAGAACTCATGGGCTTACGC (ssDNA, 5mC at position 17) [FAM 5mC oligo 1] gave an activity [15] of 90 % deamination, an activity [16] of 90 % deamination and an activity [17] of 73 % deamination. It also gave an activity [18] of 69 % deamination, an activity [19] of 4.5 % deamination and an activity [20] of 50 % deamination. It also gave an activity [21] of 5 % deamination, an activity [22] of 66 % deamination and an activity [23] of 10 % deamination. For the same molecule, the activity [24] was 7 % deamination and the activity [25] was 12 % deamination.

In the case of ATACACCGATGCAGAACTCATGGGCTTACGC (ssDNA) [FAM C oligo 4], the activity [15] is reported as 11 % deamination, the activity [16] is reported as 13 % deamination and the activity [19] is reported as 2.6 % deamination.
